Assay results published in the supplement of paper PMC9112550, “Optimization of the antimicrobial peptide Bac7 by deep mutational scanning” (BMC Biology, 2022).

System: Escherichia coli TOP10
Assay: shrunken log2 fold change of peptide-encoding DNA abundance (4.5 h post-induction vs induction); higher = less antimicrobial activity (less host growth inhibition)
Details: time post-induction: 4.5 h; library: site-saturation at positions 5, 18, 19, 20
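Also: peptides expressed intracellularly from a pBAD plasmid library in pooled LB shake-flask culture, induced with 0.3% L-arabinose, DNA abundance read by NGS, three biological replicates, DESeq2 with apeglm shrinkage.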

Row | Sequence | shrunken log2 fold change
1 | RRIRVRPPRLPRPRPRPWICPRP | -0.358
2 | RRIRVRPPRLPRPRPRPWIVPRP | -0.266
3 | RRIRVRPPRLPRPRPRPWKDPRP | -0.00963
4 | RRIRVRPPRLPRPRPRPWKHPRP | -0.0202
5 | RRIRVRPPRLPRPRPRPWKSPRP | 0.0332
6 | RRIRVRPPRLPRPRPRPWNTPRP | -0.878
7 | RRIRVRPPRLPRPRPRPWPEPRP | 0.465
8 | RRIRVRPPRLPRPRPRPWPLPRP | -0.183
9 | RRIRVRPPRLPRPRPRPWRFPRP | -0.0846
10 | RRIRVRPPRLPRPRPRPWRLPRP | 0.426
11 | RRIRVRPPRLPRPRPRPWSEPRP | -0.00215
12 | RRIRVRPPRLPRPRPRPWSPPRP | -0.00502
13 | RRIRVRPPRLPRPRPRPWWTPRP | -0.0418
14 | RRIRVRPPRLPRPRPRPWWVPRP | 0.00127
15 | RRIRVRPPRLPRPRPRPYAVPRP | -0.481
16 | RRIRVRPPRLPRPRPRPYDDPRP | -0.000921
17 | RRIRVRPPRLPRPRPRPYDKPRP | -1.05
18 | RRIRVRPPRLPRPRPRPYEFPRP | 2.15
19 | RRIRVRPPRLPRPRPRPYFIPRP | -0.72
20 | RRIRVRPPRLPRPRPRPYGQPRP | -0.0728
21 | RRIRVRPPRLPRPRPRPYGRPRP | -0.0856
22 | RRIRVRPPRLPRPRPRPYHAPRP | -0.00207
23 | RRIRVRPPRLPRPRPRPYHMPRP | -0.305
24 | RRIRVRPPRLPRPRPRPYIPPRP | -1
25 | RRIRVRPPRLPRPRPRPYKYPRP | -0.835

Row | Sequence | shrunken log2 fold change
26 | RRIRVRPPRLPRPRPRPYLEPRP | -0.141
27 | RRIRVRPPRLPRPRPRPYLSPRP | -0.491
28 | RRIRVRPPRLPRPRPRPYNKPRP | -0.707
29 | RRIRVRPPRLPRPRPRPYNNPRP | -1.16
30 | RRIRVRPPRLPRPRPRPYPHPRP | -0.342
31 | RRIRVRPPRLPRPRPRPYQDPRP | -1.42
32 | RRIRVRPPRLPRPRPRPYQGPRP | -0.236
33 | RRIRVRPPRLPRPRPRPYQMPRP | -0.34
34 | RRIRVRPPRLPRPRPRPYSHPRP | -1.25
35 | RRIRVRPPRLPRPRPRPYSLPRP | -0.533
36 | RRIRVRPPRLPRPRPRPYSVPRP | -0.265
37 | RRIRVRPPRLPRPRPRPYTIPRP | -0.736
38 | RRIRVRPPRLPRPRPRPYVGPRP | -0.0869
39 | RRIRVRPPRLPRPRPRPYVIPRP | -0.189
40 | RRIRVRPPRLPRPRPRPYWRPRP | -0.323
41 | RRIRWRPPRLPRPRPRPACQPRP | 0.015
42 | RRIRWRPPRLPRPRPRPADEPRP | 0.033
43 | RRIRWRPPRLPRPRPRPAEEPRP | 3.62
44 | RRIRWRPPRLPRPRPRPAFLPRP | -0.0114
45 | RRIRWRPPRLPRPRPRPAFQPRP | 0.62
46 | RRIRWRPPRLPRPRPRPAFSPRP | 0.383
47 | RRIRWRPPRLPRPRPRPAGAPRP | 0.392
48 | RRIRWRPPRLPRPRPRPAGFPRP | 0.272
49 | RRIRWRPPRLPRPRPRPAHSPRP | 0.321
50 | RRIRWRPPRLPRPRPRPAITPRP | 0.188

Row | Sequence | shrunken log2 fold change
51 | RRIRWRPPRLPRPRPRPALEPRP | 0.939
52 | RRIRWRPPRLPRPRPRPAMHPRP | 0.341
53 | RRIRWRPPRLPRPRPRPANGPRP | -0.186
54 | RRIRWRPPRLPRPRPRPANRPRP | 0.0566
55 | RRIRWRPPRLPRPRPRPANSPRP | 0.0236
56 | RRIRWRPPRLPRPRPRPAPHPRP | 0.491
57 | RRIRWRPPRLPRPRPRPAQAPRP | 0.237
58 | RRIRWRPPRLPRPRPRPARKPRP | -0.0849
59 | RRIRWRPPRLPRPRPRPARPPRP | 0.566
60 | RRIRWRPPRLPRPRPRPASDPRP | 0.342
61 | RRIRWRPPRLPRPRPRPATHPRP | 0.0538
62 | RRIRWRPPRLPRPRPRPAWNPRP | 0.155
63 | RRIRWRPPRLPRPRPRPAYFPRP | 0.125
64 | RRIRWRPPRLPRPRPRPAYNPRP | -0.389
65 | RRIRWRPPRLPRPRPRPAYRPRP | -0.00641
66 | RRIRWRPPRLPRPRPRPCASPRP | -0.0152
67 | RRIRWRPPRLPRPRPRPCCIPRP | 0.0413
68 | RRIRWRPPRLPRPRPRPCEAPRP | 0.471
69 | RRIRWRPPRLPRPRPRPCEEPRP | 0.0489
70 | RRIRWRPPRLPRPRPRPCEYPRP | -0.379
71 | RRIRWRPPRLPRPRPRPCHIPRP | -0.414
72 | RRIRWRPPRLPRPRPRPCKDPRP | -0.381
73 | RRIRWRPPRLPRPRPRPCKQPRP | -0.156
74 | RRIRWRPPRLPRPRPRPCKVPRP | -0.0816
75 | RRIRWRPPRLPRPRPRPCNPPRP | -0.00159

Row | Sequence | shrunken log2 fold change
76 | RRIRWRPPRLPRPRPRPCPEPRP | 0.0311
77 | RRIRWRPPRLPRPRPRPCRAPRP | 0.217
78 | RRIRWRPPRLPRPRPRPCRMPRP | -0.0166
79 | RRIRWRPPRLPRPRPRPCRNPRP | -0.0199
80 | RRIRWRPPRLPRPRPRPCSKPRP | -0.0575
81 | RRIRWRPPRLPRPRPRPCSRPRP | -0.162
82 | RRIRWRPPRLPRPRPRPCVRPRP | 0.0233
83 | RRIRWRPPRLPRPRPRPCVTPRP | 0.024
84 | RRIRWRPPRLPRPRPRPCWMPRP | 0.0693
85 | RRIRWRPPRLPRPRPRPCWQPRP | -0.0167
86 | RRIRWRPPRLPRPRPRPCYGPRP | 0.22
87 | RRIRWRPPRLPRPRPRPCYYPRP | -0.0954
88 | RRIRWRPPRLPRPRPRPDAYPRP | 0.309
89 | RRIRWRPPRLPRPRPRPDCIPRP | 0.0529
90 | RRIRWRPPRLPRPRPRPDCNPRP | -0.0173
91 | RRIRWRPPRLPRPRPRPDCQPRP | -0.00822
92 | RRIRWRPPRLPRPRPRPDDDPRP | 3.98
93 | RRIRWRPPRLPRPRPRPDFKPRP | -0.0843
94 | RRIRWRPPRLPRPRPRPDFWPRP | 0.582
95 | RRIRWRPPRLPRPRPRPDGDPRP | 0.36
96 | RRIRWRPPRLPRPRPRPDHRPRP | -0.0843
97 | RRIRWRPPRLPRPRPRPDIWPRP | 0.642
98 | RRIRWRPPRLPRPRPRPDKNPRP | 0.142
99 | RRIRWRPPRLPRPRPRPDKWPRP | -0.161
100 | RRIRWRPPRLPRPRPRPDLYPRP | 0.0586

Row | Sequence | shrunken log2 fold change
101 | RRIRWRPPRLPRPRPRPDNSPRP | -0.0707
102 | RRIRWRPPRLPRPRPRPDPHPRP | 0.135
103 | RRIRWRPPRLPRPRPRPDRGPRP | -0.0836
104 | RRIRWRPPRLPRPRPRPDSNPRP | -0.189
105 | RRIRWRPPRLPRPRPRPDVVPRP | 0.0719
106 | RRIRWRPPRLPRPRPRPEEDPRP | 0.00839
107 | RRIRWRPPRLPRPRPRPEEVPRP | -0.0142
108 | RRIRWRPPRLPRPRPRPEFHPRP | 0.227
109 | RRIRWRPPRLPRPRPRPEFKPRP | 0.0019
110 | RRIRWRPPRLPRPRPRPEHRPRP | 0.231
111 | RRIRWRPPRLPRPRPRPEIDPRP | 0.0771
112 | RRIRWRPPRLPRPRPRPEIHPRP | -0.0167
113 | RRIRWRPPRLPRPRPRPEKHPRP | 0.39
114 | RRIRWRPPRLPRPRPRPEMAPRP | 1.14
115 | RRIRWRPPRLPRPRPRPENDPRP | -0.0396
116 | RRIRWRPPRLPRPRPRPEPAPRP | 1.18
117 | RRIRWRPPRLPRPRPRPEPFPRP | -0.0317
118 | RRIRWRPPRLPRPRPRPEPNPRP | 1.23
119 | RRIRWRPPRLPRPRPRPEQMPRP | 0.222
120 | RRIRWRPPRLPRPRPRPEQNPRP | 0.117
121 | RRIRWRPPRLPRPRPRPESCPRP | 0.261
122 | RRIRWRPPRLPRPRPRPESNPRP | 0.535
123 | RRIRWRPPRLPRPRPRPESPPRP | 0.637
124 | RRIRWRPPRLPRPRPRPETLPRP | 0.0224
125 | RRIRWRPPRLPRPRPRPETMPRP | 0.569

Row | Sequence | shrunken log2 fold change
126 | RRIRWRPPRLPRPRPRPEVGPRP | 1.38
127 | RRIRWRPPRLPRPRPRPEVRPRP | 0.495
128 | RRIRWRPPRLPRPRPRPEVSPRP | 0.269
129 | RRIRWRPPRLPRPRPRPEYYPRP | -0.13
130 | RRIRWRPPRLPRPRPRPFARPRP | 0.188
131 | RRIRWRPPRLPRPRPRPFCCPRP | -0.163
132 | RRIRWRPPRLPRPRPRPFCQPRP | -0.0441
133 | RRIRWRPPRLPRPRPRPFDGPRP | -0.0363
134 | RRIRWRPPRLPRPRPRPFEQPRP | 0.0143
135 | RRIRWRPPRLPRPRPRPFFNPRP | -0.267
136 | RRIRWRPPRLPRPRPRPFFQPRP | 0.329
137 | RRIRWRPPRLPRPRPRPFGYPRP | -0.0944
138 | RRIRWRPPRLPRPRPRPFKCPRP | -0.127
139 | RRIRWRPPRLPRPRPRPFKYPRP | -0.00867
140 | RRIRWRPPRLPRPRPRPFLWPRP | 0.0802
141 | RRIRWRPPRLPRPRPRPFMGPRP | 0.0373
142 | RRIRWRPPRLPRPRPRPFPWPRP | -0.0524
143 | RRIRWRPPRLPRPRPRPFQKPRP | 0.0262
144 | RRIRWRPPRLPRPRPRPFQTPRP | -0.00783
145 | RRIRWRPPRLPRPRPRPFRRPRP | -0.134
146 | RRIRWRPPRLPRPRPRPFRTPRP | -0.16
147 | RRIRWRPPRLPRPRPRPFSCPRP | -0.00231
148 | RRIRWRPPRLPRPRPRPFTEPRP | -0.478
149 | RRIRWRPPRLPRPRPRPFWIPRP | 0.0876
150 | RRIRWRPPRLPRPRPRPFWLPRP | 0.0108
